Molecular target: the molecule itself
Assay: AUC

B1: SYCE3 (purified recombinant protein) (natural protein, Mus musculus, UniProt B5KM66 1-88, looked up)
chain: MADSDPGERSYDNMLKMLSDLNKDLEKLLEEMEKISVQATWMAYDMVVMRTNPTLAESMRRLEDAFLNCKEEMEKNWQELLTETKRKQ
  stoichiometry N: 2

Source: publication PMC4231325 (Scientific Reports, 2014)
